Measured values taken from paper PMC11267267, “Metabolic Recoding of NSUN2‐Mediated m^5C Modification Promotes the Progression of Colorectal Cancer via the NSUN2/YBX1/m^5C‐ENO1 Positive Feedback Loop” (Advanced Science, 2024).

Tested on: YBX1 cold shock domain (MST)
Assay: MST
Conditions: not given in the material (MST and pull-down methods text missing)

Work on unmethylated ENO1 RNA oligo (MST) yielded a Kd of 10.1 µM.
